# Source: paper PMC3313934, “Pinpointing P450s Associated with Pyrethroid Metabolism in the Dengue Vector, Aedes aegypti: Developing New Tools to Combat Insecticide Resistance” (PLoS Neglected Tropical Diseases, 2012)
# T1: CYP6Z2 (Anopheles gambiae, UniProt A8I285)
# T1 construct: recombinant membrane preparation from earlier work; cytochrome b5 added
# T1 sequence (A8I285 1-492): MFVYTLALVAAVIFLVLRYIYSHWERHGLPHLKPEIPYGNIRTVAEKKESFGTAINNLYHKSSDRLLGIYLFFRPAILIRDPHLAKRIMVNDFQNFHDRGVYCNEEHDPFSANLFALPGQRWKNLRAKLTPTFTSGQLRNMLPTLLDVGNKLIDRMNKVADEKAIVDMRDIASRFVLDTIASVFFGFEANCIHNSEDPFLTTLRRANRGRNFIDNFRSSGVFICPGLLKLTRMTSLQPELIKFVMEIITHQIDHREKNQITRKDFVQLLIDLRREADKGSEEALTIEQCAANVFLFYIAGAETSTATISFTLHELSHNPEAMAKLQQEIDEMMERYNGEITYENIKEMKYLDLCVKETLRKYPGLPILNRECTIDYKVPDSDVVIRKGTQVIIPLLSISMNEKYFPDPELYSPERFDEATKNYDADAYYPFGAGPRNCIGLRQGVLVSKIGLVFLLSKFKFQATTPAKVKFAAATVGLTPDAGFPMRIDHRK
# Tests used:
# CYP6Z2 = biological target: T1, CYP6Z2; experiment: resorufin fluorescence turnover, recombinant membranes; format: biochemical; conditions: 5 µM substrate, NADPH regeneration, cyt b5, 0.1 M KPi pH 7.4, 25°C
# [1] = substrate: CC1(C)[C@H](C(=O)O[C@H](C#N)c2cccc(Oc3ccccc3)c2)[C@@H]1C=C(Br)Br; experiment: HPLC substrate depletion, recombinant E. coli membranes, Michaelis-Menten fit; format: biochemical, Aedes aegypti; conditions: 0.1 µM P450, 0.8 µM cyt b5, NADPH regeneration, 200 mM Tris-HCl pH 7.4, 30°C, 10 min, apparent
# Description: (§1) HPLC substrate depletion, recombinant E. coli membranes, Michaelis-Menten fit on CYP9J26
# [2] = substrate: CC1(C)C(C=C(Cl)Cl)C1C(=O)OCc1cccc(Oc2ccccc2)c1; experiment: as above; format: biochemical, Aedes aegypti; conditions: 0.1 µM P450, 0.8 µM cyt b5, NADPH regeneration, 200 mM Tris-HCl pH 7.4, 30°C, 10 min, apparent
# Description: as §1
# [3] = substrate: CC1(C)[C@H](C(=O)O[C@H](C#N)c2cccc(Oc3ccccc3)c2)[C@@H]1C=C(Br)Br; experiment: as above; format: biochemical, Aedes aegypti; conditions: 0.1 µM P450, 0.8 µM cyt b5, NADPH regeneration, 200 mM Tris-HCl pH 7.4, 30°C, 10 min, apparent; remark: listed apart in the source
# Description: (§2) HPLC substrate depletion, recombinant E. coli membranes, Michaelis-Menten fit on CYP9J32
# [4] = substrate: CC1(C)C(C=C(Cl)Cl)C1C(=O)OCc1cccc(Oc2ccccc2)c1; experiment: as above; format: biochemical, Aedes aegypti; conditions: 0.1 µM P450, 0.8 µM cyt b5, NADPH regeneration, 200 mM Tris-HCl pH 7.4, 30°C, 10 min, apparent; remark: listed apart in the source
# Description: as §2
molecule,measurement,setting,value
COc1ccc2nc3ccc(=O)cc-3oc2c1 [RME],"resorufin fluorescence turnover, recombinant membranes",CYP6Z2,greatest activity towards RME for the resorufin ethers and L-ME for the proluciferins
"CYP9J26 (Aedes aegypti) (protein, full-length, ompA-Ala-Pro leader at N-terminus, pCW-ori+, E. coli DH5alpha membranes; co-expressed An. gambiae CPR, added An. gambiae cytochrome b5) MEVELLHVGVLVAIVAFLYRWITRNNDYFHDKPIPSMAVTPFLGASGPLLLRKVTFNDFVQSIYNKYPGVKVFGMFDTITPFFVIRDPELIKQIGIKDFDHFVDHRPTFGLDDETAEHPKALFRKTLFSMTGQRWKEMRATLSPAFTGSKMRQMFSLMSECCDEMMKHYLDKAKGSGRVEVEMKDLLSRISINVIASCAFGIKVDCFKEQEHEFLYHGRKMMGFGRPIVIARMLAMRVFPKFAAKFGIDLLDREQANYFTHVFQETIRARESHGYIRHDMIDLLLQARKGTLKYQEEKDDQEGFATVQESDVGKADVSKSMTEAEMIAQCLIFFLGGFDTVSTCAMFTAYELVRNPEVQHKLYEEIKQTEKELEGKPLSYDALQKMKYMDMVVSETLRMWPLAPATDRLCTQDYTIDDGQGVRFTIDKGTCVWFPAAGLHHDPQYFPNPEKFDPERFNDENKRNINLGAYLPFGIGPRNCIGSRFALMEVKAVMYFILLKFSFVRGAKTQIPMQLRKGFTNLGPENGMHVELKLR",Km,[1],1.2 ± 0.2 µM
same,kcat,[1],0.00367 ± 0.000167 s⁻¹
same,Km,[2],4.2 ± 0.9 µM
same,kcat,[2],0.01 ± 0.00167 s⁻¹
"CYP9J32 (Aedes aegypti) (protein, full-length, ompA leader with Ala-Gly linker at N-terminus, E. coli DH5alpha membranes; co-expressed An. gambiae CPR, added An. gambiae cytochrome b5) VIYRQVKKHYDYFHDKPIPSMATVPLLGSTGPLMTKRCTFNDFIQTIYNKYPSAKIFGLFDMTTKMFVLRDPEVIKKITVKDFEYFVDRRPLFGANKEDDGNENILFNKTLVGMVDQRWRDMRAILSPAFTGSKMRAMFELIEQYCTQMVPILKEQSAESGYVDYEMKDFFSRVANDIIATCAFGLQVESLKSRDNEFYTMGKQMMNFNRFIVLLRVMGLRFFPSLMIKMGVDIVDREQNQYFSKIIKEAVRARETHGIVRPDMIHLLMQARKGTLKHQQETTESTAGFATVEESDVGKSVVSKTMSEPEFIAQCLIFFLAGFDTVSTGMLFMAYELALNPDIQQKLYEEIAQTNKELGGKPATYDTLQKMKYMDMVVSESLRMWPVAAFDRKCGRDYVLDDGAGLKFTIDAGTCIWVPVYGIHRDPKYYPNPDKFEPERFSDENRGKIDMTMYMPFGMGPRNCIGSRFALMEIKAIMYALLLNFSIERNEKTQVPLKLVKGFVGLQVENGLHLRFKKRK",Km,[3],5.2 ± 2.1 µM
same,kcat,[3],0.05 ± 0.00833 s⁻¹
same,Km,[4],2.3 ± 1.1 µM
same,kcat,[4],0.0133 ± 0.00167 s⁻¹
